The experiment relates to Human embryonic stem cell 3 (hES3). Put plainly: pdx-1 expression by quantitative RT-PCR in embryoid bodies in 3D […] (initiation protocol). The following applies: factor included in or omitted from the early/late factor cocktail, day 20. Type of experiment: cell-based. How it is done: Human embryonic stem cell 3 (hES3) were subjected to a multi-step differentiation protocol, as outlined in FIG. 2. The embryonic stem cells were cultured as embryoid bodies suspended in 3D in […]™. The cells were cultured for 10 days in medium containing the early factors and then for 10 days in medium containing the late factors. Following culture, cells were assayed for expression of pdx-1.
To establish a baseline for comparison, human embryonic stem cells were differentiated, as described above, in 3-dimensional culture in […]™ for 20 days. […] RNA was isolated and analyzed for pdx-1 and actin expression by RT-PCR. Data were standardized in comparison to actin expression, and the results are expressed as absolute g pdx-1/kg Actin expression+/−SD.
We evaluated individual early and late factors. […] This revised protocol differs from the initial 20-day protocol only in the nature of the early and late factors used. This 2 EF-3 LF protocol included the early factors Activin A (50 ng/ml) and BMP-4 (50 ng/ml). The cells were cultured in the early factors as previously described from day 0 to day 10. The 2 EF-3 LF protocol included the late factors HGF (50 ng/ml), exendin-4 (10 ng/ml), and β-cellulin (50 ng/ml).
RNA isolation, cDNA synthesis, and quantitative PCR: Total RNA from hESC or EBs at various stages of differentiation was isolated using the Qiagen RNeasy kit or prepared using Trizol reagent (Invitrogen) according to the manufacturer's instructions. RNA was and quantified by UV absorption. 1 to 5 μg of RNA was DNase I treated and converted to cDNA using M-MuLV reverse transcriptase (New England Biolabs) using oligo-dT or random hexamer primers according to the manufacturer's instructions. Quantitative PCR was performed according to the manufacturer's instructions using a BioRad iCycler with approximately 50 ng cDNA per reaction containing 250 nM of each primer and 1×SYBR green master mix (Bio-Rad) and analyzed by Bio-RAD thermocycler.
Standard curves were generated by plotting the log (concentration in fg) of series of 100-fold dilutions of the target PCR amplicon (a range of 10^4 fg to 1 fg per reaction) versus the corresponding threshold Ct value. Normalized expression was determined by the following equation: Normalized expression=(input of target gene/input of actin control), where input is calculated as the inverse log of ((the threshold cycle (Ct value)—Y-intercept of standard curve)/slope of standard curve).

“Also recorded” adds a separate entry of the source.

B1: Beta-cellulin: late factor growth factor, 50 ng/ml (protein, UniProt P35070 32-111, looked up)
Betacellulin: DGNSTRSPETNGLLCGDPEENCAATTTQSKRKGHFSRCPKQYKHYCIKGRCRFVVAEQTPSCVCDEGYIGARCERVDLFY
As to B1, the “contribution of the factor to induction of pdx-1 expression” value (“contribution of the factor” below) is recorded as “important component”. In addition, the “contribution of the factor” value (listed as betacellulin) was “optional”.

B2: Activin A: early factor, TGF-β related growth factor, 50 ng/ml (protein, UniProt P08476 311-426, looked up)
Inhibin beta A chain: GLECDGKVNICCKKQFFVSFKDIGWNDWIIAPSGYHANYCEGECPSHIAGTSGSSLSFHSTVINHYRMRGHSPFANLKSCCVPTKLRPMSMLYYDDGQNIIKKDIQNMIVEECGCS
modifications: Inhibin beta A chain
notes: early factor, TGF-β related growth factor, 50 ng/ml
Turning to B2, the “contribution of the factor” value is on record as “important components”.

B3: Nodal: TGF-β-related ligand, evolutionarily conserved endoderm inducer; recombinant protein (protein, UniProt Q96S42 238-347, looked up)
Nodal homolog: HHLPDRSQLCRKVKFQVDFNLIGWGSWIIYPKQYNAYRCEGECPNPVGEEFHPTNHAYIQSLLKRYQPHRVPSTCCAPVKTKPLSMLYVDNGRVLLDHHKDMIVEECGCL
Regarding B3, the “contribution of the factor” value is “little effect; also recorded: does not significantly improve”. Moreover, for the setting “listed as nodal”, the “contribution of the factor” value was “optional”.

B4: BMP4: early factor, growth factor, 50 ng/ml (protein, UniProt P12644 293-408, looked up)
Bone morphogenetic protein 4: SPKHHSQRARKKNKNCRRHSLYVDFSDVGWNDWIVAPPGYQAFYCHGDCPFPLADHLNSTNHAIVQTLVNSVNSSIPKACCVPTELSAISMLYLDEYDKVVLKNYQEMVVEGCGCR
Regarding B4, the “contribution of the factor” value was “important components”.

For the origin of these results see patent US20060194321A1, “Directed differentiation of embryonic stem cells and uses thereof” (priority 2005, published 2006).
